The experiment deals with His6-SUMO-NOT7 (human) (UniProt Q9UIV1). As to the kind of experiment: mass photometry.

A word on the stoichiometry N: it is the number of molecules, sites or subunits per partner or assembly.

Chain of His6-SUMO-NOT7 (human) (Q9UIV1 whole entry): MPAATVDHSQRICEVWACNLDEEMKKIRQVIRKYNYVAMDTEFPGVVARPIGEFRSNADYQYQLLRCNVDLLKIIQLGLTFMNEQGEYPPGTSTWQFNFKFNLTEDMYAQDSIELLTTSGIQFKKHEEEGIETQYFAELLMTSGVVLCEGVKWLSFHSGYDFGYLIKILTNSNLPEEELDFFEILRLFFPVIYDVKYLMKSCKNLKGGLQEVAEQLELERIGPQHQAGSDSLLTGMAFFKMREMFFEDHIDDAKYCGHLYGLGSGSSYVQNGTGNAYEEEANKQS

Regarding “His6-PieF (from UniProt A0AAN5PHN6) (natural protein)”, the stoichiometry N was 1.

The values above are taken from PMC12255788.
